Test: yeast display, Sf9 membrane polyspecificity reagent, FACS + sequencing; frameworks hold sequencing errors
Procedure, shortened: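 Nanobodies came from a synthetic yeast display library in Saccharomyces cerevisiae BJ5465, induced with galactose for 36–48 hours and stained for 1 hour at 4 °C with 10% biotinylated, detergent-solubilized Sf9 membrane reagent. Cells were enriched on streptavidin microbeads and then FACS-sorted, with low and high (top ~1%) gates set on anti-HA fluorescence for expression and streptavidin fluorescence for reagent binding. Each polyreactivity label reflects the gate a clone came from. Genes were amplified by colony PCR, sequenced by MiSeq 2 × 250 and filtered by CDR length.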

Row | Sequence | polyreactivity (PSR sort gate)
1 | QVQLVESGGGLVQAGGSLRLSCAASGFTFSPNAMGWYRQAPGKERELVAAIDWSGDRTYSADSVKGRFTISRDNAKNTVYLQMNSLKPEDTAVYYCNVVRRSPGDYSYFYWGQGTQVTVSS | low polyreactivity
2 | QVQLVESGGGLVQAGGSLRLSCDASGRTIRHNAMGWYRQAPGKERELVAAISKRGGRTYYADSVKGRFTISRDNAKNTVYLQMNSLKPEDTAVYYCATRSSGYSLGDYWGQGTQVTVSS | high polyreactivity
3 | QVQHVESGGGLVQAGGSLRLSCAASGRTFTPNAMGWYRPPPGKVREMVAAIDWRGGRTYYADSVKGRFTISRDNAKNTVYLQKNSLKPEDTAVYYCAARVDGYQYKSAGYSYGVFYWGQGTQVTVSS | low polyreactivity
4 | KVQLVESGGGLVQAGGSLRLSCASSGSIFSGYAMGWYRQAPGKERELVAAISRGGSTNYADSVKGRFTISRDNAKNTVYLQMNSLKPEDTAVYYCARDTEGKYVGYGRFGYWGQGTQVTVSS | low polyreactivity
5 | QVQLVESGGGLVQAGGSLRLSCAASGSTFYVYAMGWYRQAPGKERELVAAITVRGGSTYYADSVKGRFTISRDNAKKTVYLQMNSLKPEDTAVYYCNAEGTYGYWRSYNYWGQGTQVTVSS | high polyreactivity
6 | QVQLVESGGGLVQAGGSLRLSCAASGRTFDIYAMGWYRQAPGKERELVADITWSDGTTYYADSVKRRFTISRDNAKNTVYLQMTSLTPEDTAVYYCNAYTVYAYDYWGQGTQVTVSS | low polyreactivity
7 | QVQLVESGGGLVQAGGSLRLSCAASGFTFARYAMGWYRQAPGKERELVAAIIWSGGRTYYADSVKGRFTISRDTAKNTVYLQMNSLKPEDTAVYYCNAWGLFYYSSGYDYWGQGTQVTVSS | high polyreactivity
8 | QVQVVESGGGLVQAGGSLRLSCAPSGRIFLGNRMSWYRHAPGKERELVAAISKSGGTTYYADSVKGRFTISRDNAKNTVYLQMNSLKPEDTAVYYCAASRPRPPSSRRMDYWGQGTQVTVSS | high polyreactivity
9 | QVQLVESGGGLVQAGGSLRLSCAASGRIFYDYAMGWYRQAPGKERELVAAISKGGGSTYYADSVKGRFTISRDNAKNTVYFQMNSLKPEDTAVYYCASSTSHTTDTRYDYWGQGTQVTVSS | low polyreactivity
10 | QFQLVESGGGLVQAGGTLRLSCPATGLIFAYNTMGWYRHAPGKERELVAGITSGGSTYYADSVKGRFTISRDNAKNTVYLHLNSLKPEDSAVYYCAAAYRNWSVSFGYWGQGTQVTVSS | high polyreactivity
11 | QVQLVESGGGLLQAGGSLPLSCAASGRIFIKYAMGWYRPAPGKERELVAAISQSGGSTYYADSVKGRFTISRDNAKNTVYLQMNSLKPEDTAVYYCAAGNRRLGGRLYRYYYWGQGPQVTVSS | high polyreactivity
12 | QVQLVESGGGLVQAGGSLRLSCAASGFIFPAYAMGWYRQAPGKERELVAAITSNGGSTYYADSVKGRFTITRDNAKNTVYLQMNSLKPEDTAVYYCNADWYWDYGWVYPEYYYWGQGTQVTVSS | high polyreactivity
13 | QVQLVESGGGLVQAGGSLRLSCAASGNTFRYYAMGWYRQAPGKERELVAAINRSGGRTYYADSVKGRFTISRDNAKNTVYLQMNSLKPEDTAVYYCARSIRYGRGVYKGGYWGQGTQVTVSS | high polyreactivity
14 | QVQLVESGGGLVQAGGSLRLSCAASGSTFSKYFMGWYSQAPGKERELVAAISGGDRTYYADSVKGRFTISRDNAKNTVYLQMNSLKTEVTAVYDCAAEVLKTRWSYDYWGQGTQVTVSS | high polyreactivity
15 | QVQLVESGGGLVQAGGSLRLSCAASGSNFSYTMGWYRQAPGKERELVAAITSGGITYYADSVKRRFTISRDNAKNTVYLQMNCLKPEDTAVYYCNAYYPYGLASFYYWGQGTQVTVSS | low polyreactivity
16 | QVQLVESGGGLVQAGGSLRLSCAASGSIFRYNAMGWYRQAPGKERELVAAISWSGGSTYYADSVKGRFTISRDNAKNTVYLQMNSLKPEDTAVYYCATRYYVNVPGRRYGYWGQGTQVTVSS | low polyreactivity
17 | QVQLVESGGGLVQAGGRLRLSCAASGSIFFYYAMGWYRQAPGKERELVADITSGGTTYYADSVKGRFTISRDNAKNTVSLQMNSLIPEDTAVYYCNAGLYPGQRPDYTNYSSDYWGQGTQVTVSS | low polyreactivity
18 | QDQLVESGGGLVQAGGSLRLSCAASVSIFGVNVMGWYRQAPGKERELVAAITSIGGRTYYADSVKGRFTISRDNAKITVYLQMNSLKPEETAVYYCNADYTGAEYDYWGQGTQVTVSS | low polyreactivity
19 | QVQLVESGGGIDQAGGSLRLSCAASGFIFTNYAMGWYRQAPGKERELVAAITRRGGGTYYADSVKGRFTISRDNAKKTVYVQMNSLKPEDTAVYYCAKYSRLVTANDYDYWGQGTQVTVSS | high polyreactivity
20 | QVQLVESGGGLVQAGGSLRLSCAASGFTIKYYAMGWYRQAPGKEREFVAAISSSGGRTYYADSVKVRFTISRDYAKNTVYLQMNSLKPEDTAVYYCAAAWGTYGYHYDYLGQGTQVTVSS | low polyreactivity
21 | QVQLVESGGGLVQAGGSLRLSCAASGRTFATNAMGWYRQAPGKERELVAAITSRGGSTYYADSVKGRFTISRDNAKNTVYLQMNSLKPEDTAVYYCAAETSPSWYTWVTYDYWGQGTQVTVSS | high polyreactivity

Row | Sequence | polyreactivity (PSR sort gate)
22 | QVQLVESGGGLVQAGGSLRLSCAASGRIFSVNGMGWYRQAPGKERELVAAITYNGGRTYYADSVKGRITISRDNAKNTVYLQMNSLKPEDTAVYYCAVESVRHPLDWYYYWGQGTQVTVSS | low polyreactivity
23 | QVQLVESGGGLVQAGGSLRLSCAASGRTFSSYVMGWYRQAPGKERELVASISRRGGSTYYADSVKGRFTISRDNAKNTVYLQMNSLKPEDTAVYYCNADLRGFGRGTDQYIFDYWGQGTQVTVSS | high polyreactivity
24 | QVHLVESGGGLVQAGGILRLSCAASGFIFVRNAMGWYRQERGKEREFVAAINSSGGRTYYADSVKGRFTISRDNAKNTVYLQMNSLKPEDTAVYYCAARSQPKKFYYWGQGTQVTVSS | high polyreactivity
25 | QVQLVESGGGLVQAGGSLRLSCAASGSIYRYAMGWYRQAPGKEREFVAAITWNGGSTYYADSVKGRFTISRDNAKNTVYLQMNSLKPEDTAVYSCAAYEKRLGYDYWGQGTQVTVSS | high polyreactivity
26 | QFQLVESGGGLVQAGGSLRLSCAASGRTFWSNAMVWYRQAPGKERELVAAISGGARTNYADSVKGRFTISRDNAKNTVYLQMNSLKPEDTEVYFCAATPRYWQSRYDYWGKGTQVTVSS | high polyreactivity
27 | QVQLVESGGGLVQAGGSLRLSCAASGSTLGRNAMGWYRQAPGKERELVAGIDGSAGSTYYADSVKGRFTISRDNAKNSVYLQMNSLKPEDTAVYYCNADVIDLDYDYWGQGTQVTVSS | low polyreactivity
28 | QVQIVESGGGLVQAGGSLRLSCAASGSTFTWYAMGWYRQAPGKERELVAAIRYSGDSTYYADSVKGRFTISRDNAKNTVYLQMNSLKPEDTAVYYCAAQYYPQYRRRMNYWGQGTQVTVSS | high polyreactivity
29 | QVQLVESGGGLVQAGGSLRLSCAASGTNFRYYTMGWYRQAPGKERELVAAITYSGGTTYYADSVKGRFTISRDNAKNTVYLQMNSLKPEDTAVYYCAATFQANYFSGYYTVYLSDYWGQGTQVTVSS | low polyreactivity
30 | QVQLVESGGGLVQAGGSLRLSCAASGSTFTWYGMGWYRQAPGKETELVAAISGSGGRTYYADSVKGRFTISRDNAKNTVYFQMNSLKPEDTAVYYCNADPANPFGTEFEYWGQGTQVTVSS | high polyreactivity
31 | QFQLVESGGGLVQAGGSLRLSCAASGYIFVRYTMGWYRQAPGKERELVAAISWGGGSTYYADSVKGLFTISRDNAKNTVYLQMNSLKPEDTAVYYCNNRYIQLYDYWGQGTQVTVSS | low polyreactivity
32 | QVQLVESGGGLVQAGGSLRLSCAASGSIFGYYAMGWYRQAPGKERELVAAISSSGASTYYADSVKGRFTISRDNAKNTVYLQMNSLKPEDTAVYYCNAARRYPTRGGYWGQGTQVTVSS | high polyreactivity
33 | QVQLVESGGGLVQAGGSLRLSCAASGRIFKYYAMGWYRQAPGKERELVAAISASGGSTYYADSVKGRFTISRDNAKNTVYLQMNSLKPEDTAVYYCAAATRRKRIWTATTRSEYWGQGTQVTVSS | high polyreactivity
34 | QVQLVESGGGLVQAGGSLRLSCAASGSIFDSNAMGWYRQAPGKERELVAAITVSGGDTYYADSVKGRFTISRDNAKNTVYLQMISLKPEDTAVYYCAKQWFTYPYYYWGQGSQVTVSS | high polyreactivity
35 | QVQLVESGGGLVQAGGSLRLSCAASGLTFNYYAMGWYRQAPGKERELVASISKRGGTYYADSVKGRFTLSRDNAKNTVYLQMNSLKPEDTAVYYCAADYWFRRNEYDYWGQGTQVTVSS | high polyreactivity
36 | QVQLVESGGGLVQAGGSLRLSCAASGSIFGIYAMGWYRQAPGKERELVAAIRVSDGRTYYADSVKGRFTISRDNAKNTVYLQMNSLKPEDTAVYYCAAESQSSYGPYDYWGQGTQVTVSS | low polyreactivity
37 | QVQPVESGGGLVQAGGSLRLSCAASASTFYYYAMGWSRQAPGKERELVASITTGGGSTYYADSVKGRFTISRDNAKKTVYLQMNSLNPEDTAVYYCNAGRYGSNLEYWGQGTQVTVSS | low polyreactivity
38 | QVHLVESGGGLVQAGGSLRLSCAASGSNFVGNAMGWYRQAPGKERELVATISNSGGRTYYADSVKGRFTISRDNAKNTVYLQMNSLKPEDTAVYYCAADHPAFGPGYSFDFWGQGTQVTVSS | low polyreactivity
39 | QVQLVESGGGLVQAGGSLRLSCAASGRTFSYYAMGWYRQAPGKERELVATIRFSAGGTYYADSVKGRFTISRDNAKNTVYLQMNSLKPEDTAVYYCNADSIDPFLYDYWGQGTQVTVSS | low polyreactivity
40 | QVQLVESAGGLVQAGGSLRLSCAASGSIFRLNALGWSRQQPGQVRELVAAITWSDSSTYYADSVKGRFTISRDTAKNTVYLQMNSLKPEDTAVSYCAGDPQSYKYDYWGQGTQVTVSS | low polyreactivity
41 | QVQLVESCGGLVQAGGSLRLRCAASGSIFSGYVMVWYRPAPGKERELVAAISGSGGSTYYADSVKGRFTISRYNAKNTVYLQMNSLKPEDTAVYYCNVDRSPTHIVGYGYWGQGSQVTVSS | low polyreactivity
